These molecules were tested against pheromone-biosynthesis-activating neuropeptide receptor (fire ant PBAN-R) (fire ant (Solenopsis invicta)) (assay: phage display selection on Sf9 cells expressing PBAN-R, 3-4 rounds; count of sequenced clones).

Molecule | Abundance of phage clones [clones]
YSSPSHF (SEQ ID NO: 23) (peptide) | 1
IQIGTHF (SEQ ID NO: 18) (peptide) | 1
IKVGPHY (SEQ ID NO: 25) (peptide) | 1
IHXGTHF (SEQ ID NO: 22) (peptide) | 1
VSRTSHL (SEQ ID NO: 28) (peptide) | 1
IHIGSHF (SEQ ID NO: 16) (peptide) | 1
TNANHYF (SEQ ID NO: 31) (peptide) | 1
TNGDSAR (SEQ ID NO: 33) (peptide) | 1
ERVGTHY (SEQ ID NO: 24) (peptide) | 1
LPWQIHN (SEQ ID NO: 29) (peptide) | 1
TQIGTHF (SEQ ID NO: 17) (peptide) | 1
ERVGTHF (SEQ ID NO: 20) (peptide) | 1
HSRVSGT (SEQ ID NO: 21) (peptide) | 1
NTGSPYE (SEQ ID NO: 36) (peptide) | 1
IKIGSHY (SEQ ID NO: 26) (peptide) | 1
QQTKNYY (SEQ ID NO: 32) (peptide) | 1
LPMTKHV (SEQ ID NO: 30) (peptide) | 1
QSIGTHF (SEQ ID NO: 19) (peptide) | 1
QRIGLHY (SEQ ID NO: 27) (peptide) | 1
SQLPWYS (SEQ ID NO: 34) (peptide) | 1
NTGGSMA (SEQ ID NO: 35) (peptide) | 1
TXVGSHF (SEQ ID NO: 15) (peptide) | 1

Target: pheromone-biosynthesis-activating neuropeptide receptor (fire ant PBAN-R) (fire ant (Solenopsis invicta))
Assay: as above
Remark: another data set of the same source

Molecule | Abundance of phage clones [clones]
CMARYMSAC (Cysteine-Cysteine S-S bond at the N- and C-terminal ends) [… (SEQ ID NO: 11)] | 2
CERVGSHFC (loop-constrained by a pair of flanking cysteine (C) residues) [… (SEQ ID NO: 5)] | 3
CVKQGTHFC (loop-constrained by a pair of flanking cysteine (C) residues) [… (SEQ ID NO: 9)] | 2
CRGATPMSC (Cysteine-Cysteine S-S bond at the N- and C-terminal ends) [… (SEQ ID NO: 12)] | 2
CIVQGSHFC (loop-constrained by a pair of flanking cysteine (C) residues) [… (SEQ ID NO: 10)] | 2
CQSINGHFC (loop-constrained by a pair of flanking cysteine (C) residues) [… (SEQ ID NO: 8)] | 2
CLKIGSHFC (Cysteine-Cysteine S-S bond at the N- and C-terminal ends) [… (SEQ ID NO: 3)] | 7
CIVQGSHFC (loop-constrained by a pair of flanking cysteine (C) residues) [… (SEQ ID NO: 7)] | 2
CIQQGSHFC (loop-constrained by a pair of flanking cysteine (C) residues) [… (SEQ ID NO: 4)] | 3
CVKLGSHFC (Cysteine-Cysteine S-S bond at the N- and C-terminal ends) [… (SEQ ID NO: 6)] | 2

Source: patent publication US20180086790A1
